Experimental data taken from doi:10.1101/2023.06.06.543845 (bioRxiv, 2023).

Tests used:
[1] = target: the molecule itself; test: crystal structure
[2] = target: T1, Mycobacterium tuberculosis NrdI (Mycobacterium tuberculosis, UniProt P9WIZ3); test: crystal structure
T1 sequence: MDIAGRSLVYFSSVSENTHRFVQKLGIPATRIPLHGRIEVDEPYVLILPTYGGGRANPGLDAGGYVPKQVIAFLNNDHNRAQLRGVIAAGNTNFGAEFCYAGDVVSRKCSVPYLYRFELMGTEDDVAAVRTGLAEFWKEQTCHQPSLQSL

B1: Mycobacterium tuberculosis NrdF2 (R2 subunit of the Class Ib ribonucleotide reductase) (enzyme)
chain: TGNAKLIDRVSAINWNRLQDEKDAEVWDRLTGNFWLPEKVPVSNDIPSWGTLTAGEKQLTMRVFTGLTMLDTIQGTVGAVSLIPDALTPHEEAVLTNIAFMESVHAKSYSQIFSTLCSTAEIDDAFRWSEENRNLQRKAEIVLQYYRGDEPLKRKVASTLLESFLFYSGFYLPMYWSSRAKLTNTADMIRLIIRDEAVHGYYIGYKFQRGLALVDDVTRAELKDYTYELLFELYDNEVEYTQDLYDEVGLTEDVKKFLRYNANKALMNLGYEALFPRDETDVNPAILSALSPNADENHDFFSGSGSSYVIGKAVVTEDDDWDF
stoichiometry N [1]: 2 | stoichiometry N [2]: 2 NrdF2 per NrdI
